Results published in patent US20160200791A1 (Novo Nordisk, published 2016).
Numbered stars: 1 amine (or outer) side, 2 acyl side, 3 side chain; on linkers, the order of the positions; unused ones are H or OH. Square brackets hold non-standard residues; d marks the D form. Side chains are listed from the residue outwards. Ends that are not written are not given here. * marks the point of attachment. Hexadecanoyl(16-SO3H) = O=C(CCCCCCCCCCCCCCCS(=O)(=O)O)*; C20 diacid = O=C(O)CCCCCCCCCCCCCCCCCCC(=O)*; C18 diacid = O=C(O)CCCCCCCCCCCCCCCCC(=O)*; γGlu = O=C(O)[C@H](CCC(=O)[*:2])N[*:1]; εLys = N[C@@H](CCCCN[*:1])C(=O)[*:2]; Cya = N[C@@H](CS(=O)(=O)O)C(=O)O; Trx = NC[C@H]1CC[C@H](C(=O)O)CC1; AEEA = NCCOCCOCC(=O)O; Aib = CC(C)(N)C(=O)O; Ahx = NCCCCCC(=O)O; GABA = NCCCC(=O)O

Key:
human GLP-1 receptor [1] = molecular target: T1, human GLP-1 receptor (human, UniProt P43220 24-463); test: cell-based or functional assay
human GLP-1 receptor [2] = molecular target: T1, human GLP-1 receptor; test: competitive SPA binding, displacement of 125I-GLP-1(7-36)NH2 from BHK membranes with human GLP-1R, high HSA (2.0%)
Procedure: (§1) For the receptor binding assay in the presence of low HSA (0.005%) 50 μl of the assay buffer was added to each well of an assay plate. Assay continued with step 3. […] For the receptor binding assay in the presence of high HSA (2%) 50 μl of the 8% albumin stock was added to each well of an assay plate. Assay continued with step 3. […] Cell membrane aliquots were thawed and diluted to their working concentration. Fifty μl were added to each well in the assay plate. […] WGA SPA beads were suspended in assay buffer at 20 mg/ml. The suspension was diluted to 10 mg/ml in assay buffer just prior to addition to the assay plate. Fifty μl were added to each well in the assay plate. […] A 25 μl aliquot was reserved for measuring total counts/well. […] The assay plate was incubated for 2 h at 30° C. […] The assay plate was centrifuged for 10 min. […] The assay plate was read in a Packard TopCount NXT instrument.

human GLP-1 receptor [3] = molecular target: T1, human GLP-1 receptor; test: competitive SPA binding, displacement of 125I-GLP-1(7-36)NH2 from BHK membranes with human GLP-1R, low HSA (max. 0.001%)
Procedure: as §1

Row | Binder | In vitro potency EC50 (CRE luciferase reporter gene assay, BHK cells) (human GLP-1 receptor [1]) | IC50 (human GLP-1 receptor [2]) | IC50 (human GLP-1 receptor [3])
1 | H[Aib]EGTFTSDVSK([εLys-AEEA-AEEA-γGlu-C18 diacid])YLEEQAARK([εLys-AEEA-AEEA-γGlu-C18 diacid])FIAWLVRGRK([εLys-AEEA-AEEA-γGlu-C18 diacid]) (Full chemical name printed at h-0062 (it prints 'Lys8' where Lys18 is meant)) | 12 pM | > 1000 nM | 0.4 nM
2 | H[Aib]EGTFTSDVSK([AEEA-AEEA-AEEA-AEEA-AEEA-εLys-εLys-C18 diacid])YLEK([AEEA-AEEA-AEEA-AEEA-AEEA-εLys-εLys-C18 diacid])QAAREFIK([AEEA-AEEA-AEEA-AEEA-AEEA-εLys-εLys-C18 diacid])WLVRGRG (Full chemical name printed at h-0082) | 14 pM | 381 nM | 0.4 nM
3 | H[Aib]EGTFTSDVSK([AEEA-AEEA-AEEA-AEEA-AEEA-εLys-εLys-Ahx-Hexadecanoyl(16-SO3H)])YLEK([AEEA-AEEA-AEEA-AEEA-AEEA-εLys-εLys-Ahx-Hexadecanoyl(16-SO3H)])QAAREFIK([AEEA-AEEA-AEEA-AEEA-AEEA-εLys-εLys-Ahx-Hexadecanoyl(16-SO3H)])WLVRGRG (Full chemical name printed at h-0090) | 27 pM | 100 nM | 0.36 nM
4 | H[Aib]EGTFTSDVSK([AEEA-AEEA-AEEA-AEEA-AEEA-εLys-εLys-GABA-Hexadecanoyl(16-SO3H)])YLEK([AEEA-AEEA-AEEA-AEEA-AEEA-εLys-εLys-GABA-Hexadecanoyl(16-SO3H)])QAAREFIK([AEEA-AEEA-AEEA-AEEA-AEEA-εLys-εLys-GABA-Hexadecanoyl(16-SO3H)])WLVRGRG (Full chemical name printed at h-0092) | 15 pM | 96 nM | 0.24 nM
5 | H[Aib]EGTFTSDVSK([AEEA-AEEA-AEEA-AEEA-εLys-εLys-GABA-Hexadecanoyl(16-SO3H)])YLEK([AEEA-AEEA-AEEA-AEEA-εLys-εLys-GABA-Hexadecanoyl(16-SO3H)])QAAREFIK([AEEA-AEEA-AEEA-AEEA-εLys-εLys-GABA-Hexadecanoyl(16-SO3H)])WLVRGRG (Full chemical name printed at h-0086) | 116 pM | 19 nM | 0.1 nM
6 | H[Aib]EGTFTSDVSK([AEEA-AEEA-γGlu-C18 diacid])YLEEQAARK([AEEA-AEEA-γGlu-C18 diacid])FIAWLVRGRK([AEEA-AEEA-γGlu-C18 diacid]) (Full chemical name printed at h-0060) | 40 pM | > 1000 nM | 0.6 nM
7 | H[Aib]EGTFTSDVSSYLEEQAAK([εLys-AEEA-AEEA-γGlu-C18 diacid])EFIK([εLys-AEEA-AEEA-γGlu-C18 diacid])WLVRGRK([εLys-AEEA-AEEA-γGlu-C18 diacid]) (Full chemical name printed at h-0072) | 85 pM | > 1000 nM | 8.7 nM
8 | H[Aib]EGTFTSDVSSYLEEQAARK([AEEA-AEEA-γGlu-C18 diacid])FIK([AEEA-AEEA-γGlu-C18 diacid])WLVRGRK([AEEA-AEEA-γGlu-C18 diacid]) (Full chemical name printed at h-0070) | 26 pM | 188 nM | 0.82 nM
9 | H[Aib]EGTFTSDVSSYLEEQAAK([εLys-AEEA-AEEA-Cya-Hexadecanoyl(16-SO3H)])EFIK([εLys-AEEA-AEEA-Cya-Hexadecanoyl(16-SO3H)])WLVRGRK([εLys-AEEA-AEEA-Cya-Hexadecanoyl(16-SO3H)]) (Full chemical name printed at h-0074) | 99 pM | 214 nM | 5 nM
10 | H[Aib]EGTFTSDVSK([Ser-Ser-Ser-Ser-Ser-Ser-γGlu-C18 diacid])YLEGQAARK([Ser-Ser-Ser-Ser-Ser-Ser-γGlu-C18 diacid])FIAWLVRGRK([Ser-Ser-Ser-Ser-Ser-Ser-γGlu-C18 diacid]) (Full chemical name printed at h-0068) | 67 pM | > 1000 nM | 
11 | H[Aib]EGTFTSDVSK([AEEA-AEEA-AEEA-AEEA-εLys-εLys-Ahx-Hexadecanoyl(16-SO3H)])YLEK([AEEA-AEEA-AEEA-AEEA-εLys-εLys-Ahx-Hexadecanoyl(16-SO3H)])QAAREFIK([AEEA-AEEA-AEEA-AEEA-εLys-εLys-Ahx-Hexadecanoyl(16-SO3H)])WLVRGRG (Full chemical name printed at h-0088; the printed name is uneven in the number of OEG units for the side chains at 18 and 22 (four opened, three closed)) | 19 pM | 49 nM | 0.15 nM
12 | H[Aib]EGTFTSDVSK([AEEA-γGlu-AEEA-C18 diacid])YLEEQAARK([AEEA-γGlu-AEEA-C18 diacid])FIAWLVRGRK([AEEA-γGlu-AEEA-C18 diacid]) (Full chemical name printed at h-0064) | 76 pM | > 1000 nM | 0.7 nM
13 | H[Aib]EGTFTSDVSK([AEEA-AEEA-Cya-Hexadecanoyl(16-SO3H)])YLEK([AEEA-AEEA-Cya-Hexadecanoyl(16-SO3H)])QAAREFIK([AEEA-AEEA-Cya-Hexadecanoyl(16-SO3H)])WLVRGRG (Full chemical name printed at h-0054) | 20 pM | 290 nM | 1.4 nM
14 | H[Aib]EGTFTSDVSK([AEEA-AEEA-Cya-Trx-Hexadecanoyl(16-SO3H)])YLEK([AEEA-AEEA-Cya-Trx-Hexadecanoyl(16-SO3H)])QAAREFIK([AEEA-AEEA-Cya-Trx-Hexadecanoyl(16-SO3H)])WLVRGRG (Full chemical name printed at h-0058 (it prints 'Lys8' where Lys18 is meant)) | 14 pM | 351 nM | 1.6 nM
15 | H[Aib]EGTFTSDVSK([AEEA-AEEA-εLys-Hexadecanoyl(16-SO3H)])YLEK([AEEA-AEEA-εLys-Hexadecanoyl(16-SO3H)])QAAREFIK([AEEA-AEEA-εLys-Hexadecanoyl(16-SO3H)])WLVRGRG (Full chemical name printed at h-0076) | 26 pM | 84 nM | 0.23 nM
16 | H[Aib]EGTFTSDVSK([AEEA-AEEA-AEEA-AEEA-AEEA-εLys-εLys-εLys-C18 diacid])YLEK([AEEA-AEEA-AEEA-AEEA-AEEA-εLys-εLys-εLys-C18 diacid])QAAREFIK([AEEA-AEEA-AEEA-AEEA-AEEA-εLys-εLys-εLys-C18 diacid])WLVRGRG (Full chemical name printed at h-0084) | 18 pM | 143 nM | 0.08 nM
17 | H[Aib]EGTFTSDVSK([AEEA-AEEA-γGlu-Trx-Hexadecanoyl(16-SO3H)])YLEK([AEEA-AEEA-γGlu-Trx-Hexadecanoyl(16-SO3H)])QAAREFIK([AEEA-AEEA-γGlu-Trx-Hexadecanoyl(16-SO3H)])WLVRGRG (Full chemical name printed at h-0052) | 67 pM | 289 nM | 2.3 nM
18 | H[Aib]EGTFTSDVSK([AEEA-AEEA-AEEA-AEEA-AEEA-εLys-εLys-C20 diacid])YLEK([AEEA-AEEA-AEEA-AEEA-AEEA-εLys-εLys-C20 diacid])QAAREFIK([AEEA-AEEA-AEEA-AEEA-AEEA-εLys-εLys-C20 diacid])WLVRGRG (Full chemical name printed at h-0080) | 82 pM | 426 nM | 11 nM
19 | H[Aib]EGTFTSDVSK([AEEA-AEEA-εLys-εLys-Hexadecanoyl(16-SO3H)])YLEK([AEEA-AEEA-εLys-εLys-Hexadecanoyl(16-SO3H)])QAAREFIK([AEEA-AEEA-εLys-εLys-Hexadecanoyl(16-SO3H)])WLVRGRG (Full chemical name printed at h-0078) | 18 pM | 100 nM | 0.19 nM
